Assay results: patent US20210163923A1

Target: Heat inactivated human AB serum labelled with Dylight 633 (human)
Experiment: flow cytometry, IgG displayed on HEK293 cells, anti-Fc PE and Dylight 633 labelled human AB serum

Substance | % cells double positive for antibody and human serum binding [%]
Vesencumab (antibody) | 12.3
Nivolumab displayed from pINT17-BSD (antibody) | 3.7
